T1: monkey C5-mmh (monkey, UniProt P01031 19-1676 (human entry), limits assumed)
T1 construct: Expressed with a C-terminal myc-myc-hexahistidine tag
T1 chain: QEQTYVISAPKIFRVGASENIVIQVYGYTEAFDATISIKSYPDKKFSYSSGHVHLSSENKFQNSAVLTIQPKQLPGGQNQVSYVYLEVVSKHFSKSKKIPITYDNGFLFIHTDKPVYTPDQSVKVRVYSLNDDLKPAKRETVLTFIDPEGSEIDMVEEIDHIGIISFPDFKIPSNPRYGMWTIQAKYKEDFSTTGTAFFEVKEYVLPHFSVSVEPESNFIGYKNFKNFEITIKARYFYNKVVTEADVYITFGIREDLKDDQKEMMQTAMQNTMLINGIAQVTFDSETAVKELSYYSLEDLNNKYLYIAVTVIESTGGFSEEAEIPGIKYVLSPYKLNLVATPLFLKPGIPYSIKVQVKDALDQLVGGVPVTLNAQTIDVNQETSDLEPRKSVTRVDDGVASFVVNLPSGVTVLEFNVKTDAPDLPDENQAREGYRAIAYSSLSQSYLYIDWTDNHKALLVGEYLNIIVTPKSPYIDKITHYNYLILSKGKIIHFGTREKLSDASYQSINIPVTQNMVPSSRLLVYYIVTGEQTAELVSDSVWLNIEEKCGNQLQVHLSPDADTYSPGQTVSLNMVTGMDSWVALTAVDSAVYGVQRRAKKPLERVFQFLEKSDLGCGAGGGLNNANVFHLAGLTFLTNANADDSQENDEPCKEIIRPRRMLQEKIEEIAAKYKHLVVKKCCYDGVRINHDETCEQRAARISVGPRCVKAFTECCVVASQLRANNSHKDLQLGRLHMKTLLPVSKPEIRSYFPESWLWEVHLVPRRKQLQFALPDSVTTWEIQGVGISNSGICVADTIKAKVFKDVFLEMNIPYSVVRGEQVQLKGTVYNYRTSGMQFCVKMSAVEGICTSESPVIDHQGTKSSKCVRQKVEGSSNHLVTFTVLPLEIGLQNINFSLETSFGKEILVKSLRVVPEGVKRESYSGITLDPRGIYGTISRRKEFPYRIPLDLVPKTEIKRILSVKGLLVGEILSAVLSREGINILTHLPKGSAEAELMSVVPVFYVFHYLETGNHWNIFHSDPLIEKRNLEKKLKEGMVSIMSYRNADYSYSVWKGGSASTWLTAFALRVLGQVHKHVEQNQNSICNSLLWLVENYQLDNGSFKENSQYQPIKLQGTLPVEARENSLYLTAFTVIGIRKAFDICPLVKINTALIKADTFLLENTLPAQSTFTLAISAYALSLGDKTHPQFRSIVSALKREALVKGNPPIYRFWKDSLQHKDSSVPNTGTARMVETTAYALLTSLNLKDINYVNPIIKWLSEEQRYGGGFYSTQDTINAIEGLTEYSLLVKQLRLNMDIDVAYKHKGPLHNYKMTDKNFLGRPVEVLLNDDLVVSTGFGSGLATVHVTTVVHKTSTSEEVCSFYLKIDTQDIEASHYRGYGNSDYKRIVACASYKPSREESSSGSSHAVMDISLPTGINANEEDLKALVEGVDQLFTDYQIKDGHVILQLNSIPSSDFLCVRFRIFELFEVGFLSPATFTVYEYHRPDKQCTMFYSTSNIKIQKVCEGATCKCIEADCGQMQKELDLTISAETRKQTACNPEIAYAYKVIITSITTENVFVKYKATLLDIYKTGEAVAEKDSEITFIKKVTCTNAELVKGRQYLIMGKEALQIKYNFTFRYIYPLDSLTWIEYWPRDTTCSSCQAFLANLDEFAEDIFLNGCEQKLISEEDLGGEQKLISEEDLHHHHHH

B1: H4H12168P (antibody, human IgG4, V domains shown)
VH: QVQLVESGGGVVQPGGSLRLSCAASGFTFGGHAMHWVRQAPGKGLEWLAVISSDGSNKQYADSVKGRFTISRDNPKNTLYLQMNSLRVGDTAIYYCAKEVAPRYYYYGLDVWGQGTTVTVSS
VL: DIQMTQSPSSLSASVGDRVTITCRASQDISNFLAWYQQKPGKVPKLLIYTASTLQSGVPSRFSGSGSGTDFTLTVSSLQPEDVATYYCQKYAGALTFGPGTKVDIK
B2: H4H11686N (antibody, human IgG4, V domains shown)
VH: QVQLVESGGGLVKPGGSLRLSCAASGFTFSDYYMSWIRQAPGKGLEWVSYISSSGNTIKYADSMKGRFTISRDNAKKSLFVEMNSLRAEDTAVYYCARYKSSSDYFDHWGQGTLVTVSS
VL: EIVLTQSPATLSLSPGERATLSCRASQSVRSYLAWYQQKPGQAPRLLIYDASNRATAIPARFSGSGSGTDFTLTISSLEPEDLAVYYCQQSGNWPLTFGGGTKVEIK
notes: also called H2M11686N
B3: H4H12169P (antibody, human IgG4, V domains shown)
VH: EVQLVESGGGLAQPGGSLRLSCAASGFTFRSYAMSWVRQAPGKGPEWVSGIGGNGVTTYYADSVKGRFTISRDNSKNTLFLQMNSLRAEDTAVYYCVQGGLGGYFTGYWGQGTLVTVSS
VL: DIQMTQSPSSLSASVGDRVTITCRASQSISTYLNWYQQNPGKAPKLLIFDASSLQSGVPSRFSGSGSGTDFTLTIRGLQPEDFATYYCQQSYSAPLTFGGGTKVEIK
B4: H4H12177P2 (antibody, human IgG4, V domains shown)
VH: EVQLVESGGGVVQRGESLRLSCSASDFIFKDYAMYWVRQIPGKGLEWISLISGDGDTTWYGDSVKGRFTISRDNNENSLFLQMNDLRTEDTAMYYCARDMGWNFFQLQYWGQGTLVTVSS
VL: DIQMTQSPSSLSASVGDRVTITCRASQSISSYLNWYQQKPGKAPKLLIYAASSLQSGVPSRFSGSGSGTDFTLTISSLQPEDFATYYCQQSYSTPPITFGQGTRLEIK
B5: H4H12170P (antibody, human IgG4, V domains shown)
VH: QVQLVESGGGVVQPGRSLRLSCAASGFTFSGYGMHWVRQAPGKGLEWVALIWLDGSNDYYADSVKGRFTISRDNSKNTLYLQMNRLRAEDTAVYYCARDGPVAAIPDYWGQGTLVTVSS
VL: DIQMTQSPSTLSASVGDRVTITCRASQSISRWLAWYQLKPGKAPKLLIYKASSLESGVPSRFSGSGSGTDFTLTISSLQPDDFATYYCQQYNTYSYTFGQGTKLEIK
B6: H4H12183P2 (antibody, human IgG4, V domains shown)
VH: QVQLQESGPALVKPSQTLSLTCTVSGGSIIRGSTYWSWVRQFPGKGLEWIGYSYYSGTAYYNPSLESRATISVDTSKNQFSLNLKSVTAADTAVYYCTREIGVAGLFDIWGQGTLVTVSS
VL: not shown

The text below walks through data of US20170355757A1 (Regeneron, published 2017).

As usually defined, the Kd is the free concentration of one partner at which half of the binding sites on the other are occupied at equilibrium, for simple one-to-one binding. The term koff denotes the first-order rate constant of dissociation. By kon is commonly meant the second-order rate constant of association. As usually defined, the t½ is the time needed for the level to fall by half in the phase considered.

The first experiment has as its target T2, Human C5 (human, UniProt P01031 19-1676).
T2 construct: The natural protein has a beta and an alpha chain; also called complement factor 5; complement component 5
The experiment can be described thus: SPR, mAb captured by anti-hFc, 25C. The protocol: (§1) Equilibrium dissociation constants (KD values) for C5 binding to purified anti-C5 antibodies were determined using a real-time surface plasmon resonance biosensor assay on a Biacore T200 instrument. The Biacore sensor surface was derivatized by amine coupling with a monoclonal mouse anti-human Fc antibody (GE Healthcare, # BR-1008-39) to capture anti-C5 antibodies expressed with human Fc constant regions. Biacore binding studies were conducted in HBST running buffer (0.01M HEPES pH 7.4, 0.15M NaCl, 3 mM EDTA, 0.05% v/v Surfactant P20).
(§2) Human C5 was obtained from a commercial source (EMD). Other C5 reagents were expressed with a C-terminal myc-myc-hexahistidine tag (subsequently referred to as C5-mmh). […] Association of all the C5 reagents to each of the captured monoclonal antibodies was monitored for 3 minutes and their dissociation in HBST running buffer was monitored for 8 minutes. All the binding kinetics experiments were performed at either 25° C. or 37° C. Kinetic association (kₐ) and dissociation (kd) rate constants were determined by fitting the real-time sensorgrams to a 1:1 binding model using Scrubber 2.0c curve fitting software. Binding dissociation equilibrium constants (KD) and dissociative half-lives (t %) were calculated from the kinetic rate constants as: KD (M)=kd/kₐ and t_{1/2} (min)=In2/(60×kd)
Turning to B1, the “100 nM Human C5 Bound (RU)” value stood at 113 RU, binding was characterised by a dissociation constant (Kd) of 0.112 nM, the koff is 4.75e-05 s⁻¹ and the kon amounted to 423000 M⁻¹ s⁻¹. Further, the t½ is 243 min.

As to B2, the “100 nM Human C5 Bound (RU)” value turned out to be 341 RU, binding was put at a Kd of 0.15 nM, the koff was 3.31e-05 s⁻¹ and the kon worked out at 220000 M⁻¹ s⁻¹. The t½ amounted to 349 min.

Consider B3, for which the “100 nM Human C5 Bound (RU)” value was determined as 18 RU, the Kd was found to be 1.96 nM, the koff was 0.00044 s⁻¹ and the kon worked out at 224000 M⁻¹ s⁻¹. This molecule also had a t½ of 26 min.

Regarding B4, the “100 nM Human C5 Bound (RU)” value was found to be 60 RU, binding was put at a Kd of 0.959 nM, the koff came out at 6.29e-05 s⁻¹ and the kon was 65600 M⁻¹ s⁻¹. This molecule also gave a t½ of 184 min.

Consider B5, for which the “100 nM Human C5 Bound (RU)” value came out at 119 RU, binding was characterised by a dissociation constant (Kd) of 0.129 nM, the koff stood at 6.79e-05 s⁻¹ and the kon is 525000 M⁻¹ s⁻¹. The molecule further returned a t½ of 170 min.

With B6, the “100 nM Human C5 Bound (RU)” value worked out at 50 RU, binding was put at a Kd of 0.163 nM, the koff was 2.7e-05 s⁻¹ and the kon amounted to 166000 M⁻¹ s⁻¹. Moreover, the t½ worked out at 427 min.

The target in a further experiment is T1, monkey C5-mmh. The experiment can be described thus: SPR, mAb captured by anti-hFc, 25C. On the procedure: as §1, §2
On to B1, for which the “100 nM monkey C5-mmh Bound (RU)” value was determined as 86 RU, the Kd is 0.66 nM, the koff worked out at 0.000114 s⁻¹ and the kon was found to be 173000 M⁻¹ s⁻¹. In addition, the “t1/2” value was 101 min.

With B2, the “100 nM monkey C5-mmh Bound (RU)” value came to 247 RU, the Kd was 3.11 nM, the koff stood at 0.000489 s⁻¹ and the on-rate (kon) was found to be 157000 M⁻¹ s⁻¹. Further, the “t1/2” value is 24 min.

Consider B3, for which the “100 nM monkey C5-mmh Bound (RU)” value was found to be 22 RU, the Kd came out at 27.8 nM, the koff came to 0.00455 s⁻¹ and the kon amounted to 164000 M⁻¹ s⁻¹. In addition, the “t1/2” value stood at 3 min.

As to B4, the “100 nM monkey C5-mmh Bound (RU)” value came out at 32 RU, the equilibrium dissociation constant (Kd) was found to be 21.5 nM, the koff was determined as 0.000992 s⁻¹ and the kon was 46200 M⁻¹ s⁻¹. Besides, the “t1/2” value worked out at 12 min.

Consider B5, for which the “100 nM monkey C5-mmh Bound (RU)” value was 92 RU, the Kd was found to be 0.199 nM, the koff worked out at 5.21e-05 s⁻¹ and the kon was 262000 M⁻¹ s⁻¹. The “t1/2” value amounted to 222 min.

Consider B6, for which the “100 nM monkey C5-mmh Bound (RU)” value stood at 23 RU, binding was put at a Kd of 10.1 nM, the koff amounted to 0.000494 s⁻¹ and the kon worked out at 48800 M⁻¹ s⁻¹. Further, the “t1/2” value is 23 min.

In another experiment the target is T2, Human C5. As to the kind of experiment: SPR, mAb captured by anti-hFc, 37C. The protocol: as §1, §2
For the molecule B1, the “100 nM Human C5 Bound (RU)” value was 12 RU, the Kd was found to be 18.5 nM, the koff came out at 0.000464 s⁻¹ and the kon is 25000 M⁻¹ s⁻¹. The molecule further came in with a t½ of 25 min.

In the case of B2, the “100 nM Human C5 Bound (RU)” value was 406 RU, binding was characterised by a dissociation constant (Kd) of 0.469 nM, the koff is 0.000156 s⁻¹ and the kon turned out to be 333000 M⁻¹ s⁻¹. For the same molecule, the t½ came to 74 min.

Regarding B3, the “100 nM Human C5 Bound (RU)” value came out at 65 RU, the Kd worked out at 3.06 nM, the koff was 0.000352 s⁻¹ and the kon is 115000 M⁻¹ s⁻¹. This molecule came in with a t½ of 33 min.

Consider B4, for which the “100 nM Human C5 Bound (RU)” value is 37 RU, the Kd stood at 13.1 nM, the koff worked out at 0.000578 s⁻¹ and the kon was 44200 M⁻¹ s⁻¹. The same molecule displayed a t½ of 20 min.

Turning to B5, the “100 nM Human C5 Bound (RU)” value came out at 55 RU, the Kd came out at 1.4 nM, the koff is 0.000415 s⁻¹ and the kon stood at 297000 M⁻¹ s⁻¹. This molecule had a t½ of 28 min.

On to B6, for which the “100 nM Human C5 Bound (RU)” value amounted to 30 RU, binding was put at a Kd of 5.81 nM, the koff is 0.00025 s⁻¹ and the kon came to 43000 M⁻¹ s⁻¹. Moreover, the t½ is 46 min.
